Measurements published in article PMC9082959, “Mechanism of Assembly of the Non-Covalent Spectrin Tetramerization Domain from Intrinsically Disordered Partners” (Journal of molecular biology, 2013).

Tests used:
Experiment in all cases: ITC; β16β17 at 25–50 μM in the cell titrated with 15–20 injections to 2–2.5 eq of α0α1; one-site binding model; PBS (50 mM sodium phosphate, 150 mM NaCl, pH 7.04), 25 °C; mutants only against the wild-type partner
Conditions in all cases: both partners purified
β16β17 K43G = target: T1, β16β17 K43G (human, UniProt P11277 1898-2083, K2046G)
T1 construct: erythrocyte β-spectrin, human, residues 1898-2083 (β16β17); mutant of m2; also called K2046G; source: E. coli C41(DE3), purified (Ni2+ agarose, thrombin cleavage, gel filtration)
T1 sequence (looked up): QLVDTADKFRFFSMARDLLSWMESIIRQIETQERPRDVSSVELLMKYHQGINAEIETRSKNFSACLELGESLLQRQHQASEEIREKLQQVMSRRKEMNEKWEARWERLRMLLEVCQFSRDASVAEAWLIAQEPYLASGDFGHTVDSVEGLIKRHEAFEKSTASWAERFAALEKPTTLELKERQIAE

β16β17 C9G = target: T2, β16β17 C9G (human, UniProt P11277 1898-2083, C2012G)
T2 construct: erythrocyte β-spectrin, human, residues 1898-2083 (β16β17); mutant of m2; also called C2012G; source: E. coli C41(DE3), purified (Ni2+ agarose, thrombin cleavage, gel filtration)
T2 sequence (looked up): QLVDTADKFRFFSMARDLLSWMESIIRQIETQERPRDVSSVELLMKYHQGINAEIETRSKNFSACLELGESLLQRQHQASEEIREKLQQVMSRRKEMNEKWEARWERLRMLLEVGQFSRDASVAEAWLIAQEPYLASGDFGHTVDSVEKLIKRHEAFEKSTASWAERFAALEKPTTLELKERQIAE

β16β17 K53A = target: T3, β16β17 K53A (human, UniProt P11277 1898-2083, K2056A)
T3 construct: erythrocyte β-spectrin, human, residues 1898-2083 (β16β17); mutant of m2; also called K2056A; source: E. coli C41(DE3), purified (Ni2+ agarose, thrombin cleavage, gel filtration)
T3 sequence (looked up): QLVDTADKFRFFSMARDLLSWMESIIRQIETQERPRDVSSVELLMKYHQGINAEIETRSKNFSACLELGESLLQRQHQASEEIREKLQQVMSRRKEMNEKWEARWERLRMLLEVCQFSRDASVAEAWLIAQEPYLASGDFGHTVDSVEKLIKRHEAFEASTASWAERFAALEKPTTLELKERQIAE

β16β17 S57A = target: T4, β16β17 S57A (human, UniProt P11277 1898-2083, S2060A)
T4 construct: erythrocyte β-spectrin, human, residues 1898-2083 (β16β17); mutant of m2; also called S2060A; source: E. coli C41(DE3), purified (Ni2+ agarose, thrombin cleavage, gel filtration)
T4 sequence (looked up): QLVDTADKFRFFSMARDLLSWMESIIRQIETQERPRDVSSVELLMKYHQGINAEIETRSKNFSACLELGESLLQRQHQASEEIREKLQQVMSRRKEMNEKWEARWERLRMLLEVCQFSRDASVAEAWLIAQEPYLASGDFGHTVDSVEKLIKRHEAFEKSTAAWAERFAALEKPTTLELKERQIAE

β16β17 C9A = target: T5, β16β17 C9A (human, UniProt P11277 1898-2083, C2012A)
T5 construct: erythrocyte β-spectrin, human, residues 1898-2083 (β16β17); mutant of m2; also called C2012A; source: E. coli C41(DE3), purified (Ni2+ agarose, thrombin cleavage, gel filtration)
T5 sequence (looked up): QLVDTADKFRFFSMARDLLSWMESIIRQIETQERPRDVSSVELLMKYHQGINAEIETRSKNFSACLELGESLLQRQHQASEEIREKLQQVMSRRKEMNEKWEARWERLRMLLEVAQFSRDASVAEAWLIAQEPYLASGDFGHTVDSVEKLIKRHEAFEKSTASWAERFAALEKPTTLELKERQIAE

β16β17 A20G = target: T6, β16β17 A20G (human, UniProt P11277 1898-2083, A2023G)
T6 construct: erythrocyte β-spectrin, human, residues 1898-2083 (β16β17); mutant of m2; also called A2023G; source: E. coli C41(DE3), purified (Ni2+ agarose, thrombin cleavage, gel filtration)
T6 sequence (looked up): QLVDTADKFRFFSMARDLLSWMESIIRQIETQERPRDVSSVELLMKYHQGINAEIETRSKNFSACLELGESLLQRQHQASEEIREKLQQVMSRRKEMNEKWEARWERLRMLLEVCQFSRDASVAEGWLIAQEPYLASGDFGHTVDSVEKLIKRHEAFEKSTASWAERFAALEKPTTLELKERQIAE

B1: α0α1 (erythrocyte α-spectrin residues 2–163), wild type (domain or fragment, human, UniProt P02549 2-163, looked up)
chain: EQFPKETVVESSGPKVLETAEEIQERRQEVLTRYQSFKERVAERGQKLEDSYHLQVFKRDADDLGKWIMEKVNILTDKSYEDPTNIQGKYQKHQSLEAEVQTKSRLMSELEKTREERFTMGHSAHEETKAHIEELRHLWDLLLELTLEKGDQLLRALKFQQY
notes: synthetic gene (GenScript) in a modified pRSETA plasmid; also called α1α0; source: E. coli C41(DE3), purified (Ni2+ agarose, thrombin cleavage, gel filtration)
Ka (β16β17 K43G): 328000 M⁻¹ | Ka (β16β17 C9G): 470000 M⁻¹ | Ka (β16β17 K53A): 1.5e+06 M⁻¹ | Ka (β16β17 S57A): 1.5e+06 M⁻¹ | Ka (β16β17 C9A): 2.7e+06 M⁻¹ | Ka (β16β17 A20G): 530000 M⁻¹
